Values of other authors in patent US20080160019A1, “SEQUENTIAL COMBINATION THERAPY” (DYAX CORP., priority 2006, published 2008).

Molecular target: Tie1 (Homo sapiens, UniProt P35590)
Sequence (P35590 22-1138): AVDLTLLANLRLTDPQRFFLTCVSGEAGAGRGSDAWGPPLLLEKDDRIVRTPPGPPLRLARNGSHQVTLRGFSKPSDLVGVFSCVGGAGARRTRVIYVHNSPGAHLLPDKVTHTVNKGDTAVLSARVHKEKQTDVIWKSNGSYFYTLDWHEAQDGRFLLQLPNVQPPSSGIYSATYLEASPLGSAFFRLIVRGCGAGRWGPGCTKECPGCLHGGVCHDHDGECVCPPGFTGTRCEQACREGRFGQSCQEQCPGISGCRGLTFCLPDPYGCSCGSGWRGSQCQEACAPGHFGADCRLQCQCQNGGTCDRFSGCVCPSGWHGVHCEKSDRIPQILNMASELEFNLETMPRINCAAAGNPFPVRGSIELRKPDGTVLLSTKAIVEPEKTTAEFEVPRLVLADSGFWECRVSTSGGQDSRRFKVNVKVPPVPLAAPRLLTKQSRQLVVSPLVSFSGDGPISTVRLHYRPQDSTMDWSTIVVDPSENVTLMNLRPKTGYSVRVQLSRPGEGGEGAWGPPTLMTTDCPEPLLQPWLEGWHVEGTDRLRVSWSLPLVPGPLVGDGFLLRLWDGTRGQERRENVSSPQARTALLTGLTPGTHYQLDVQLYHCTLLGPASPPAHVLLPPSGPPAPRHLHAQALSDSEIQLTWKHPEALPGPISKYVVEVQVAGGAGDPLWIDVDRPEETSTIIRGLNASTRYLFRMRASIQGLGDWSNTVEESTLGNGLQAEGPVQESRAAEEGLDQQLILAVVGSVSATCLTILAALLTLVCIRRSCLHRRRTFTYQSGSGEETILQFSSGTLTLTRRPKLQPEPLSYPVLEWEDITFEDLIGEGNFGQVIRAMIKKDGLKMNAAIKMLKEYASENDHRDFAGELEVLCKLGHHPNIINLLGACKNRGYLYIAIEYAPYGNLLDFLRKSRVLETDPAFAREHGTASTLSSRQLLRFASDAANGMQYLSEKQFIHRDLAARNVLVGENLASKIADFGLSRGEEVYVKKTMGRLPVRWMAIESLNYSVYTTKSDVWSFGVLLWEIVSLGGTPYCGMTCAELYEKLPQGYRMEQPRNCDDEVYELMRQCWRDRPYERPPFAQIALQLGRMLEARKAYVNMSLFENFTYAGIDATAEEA

Tie1 tyrosine phosphorylation: induce
Tie complex formation: induce
down modulation of Tie1 from the cell surface: induce
B1: M0044-B08: Tie1 ectodomain-binding antibody, variable domains SEQ ID NO:2 and 4 (antibody, listed as Homo sapiens, V domains shown)
VL: QDIQMTQSPSFLSASVGDRVTISCRASQYISIYLNWYQQRPGEAPKLLINAASSLQSGDPSRFSGSGSGTDFTLTINSLQPDDFATYYCQQYKSYPLTFGEGTKVEIK
VH: EVQLLESGGGLVQPGGSLRLSCAASGFTFSAYGMGWVRQAPGKGLEWVSVISPSGGQTSYADSVKGRFTISRDNSKNTLYLQMNSLRAEDTALYYCAGGDRYGPLHYWGQGTLVTVSS
